Assay results as given in article PMC8093829.

Columns and labels:
[1] = target: T1, recombinant L-asparaginase refolded from E. coli inclusion bodies, P00805; experiment: SEC; Superdex 200 PG 16/600, equilibrated with 20 mM Tris-HCl, 10% (v/v) glycerol, pH 8.5, eluted in 50 mM Tris-HCl, 0.5 ml/min; DEAE-purified, concentrated refolded L-asparaginase; conditions: remark: other sources report otherwise
T1 chain: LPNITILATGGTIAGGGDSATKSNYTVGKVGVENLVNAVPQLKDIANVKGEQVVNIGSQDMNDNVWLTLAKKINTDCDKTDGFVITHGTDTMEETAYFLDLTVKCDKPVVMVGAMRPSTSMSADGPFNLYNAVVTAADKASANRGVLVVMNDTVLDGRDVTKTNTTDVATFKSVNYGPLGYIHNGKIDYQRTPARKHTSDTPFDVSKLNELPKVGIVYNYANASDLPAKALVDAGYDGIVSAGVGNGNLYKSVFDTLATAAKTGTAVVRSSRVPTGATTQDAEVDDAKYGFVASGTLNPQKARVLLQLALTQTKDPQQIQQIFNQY

[2] = target: T2, commercial L-asparaginase 5,000 IU/ml, Bionase 5K, P00805; experiment: SEC; HPLC, TSK gel G3000SWxl, 20 mM Tris-HCl and 100 mM NaCl; commercial L-asparaginase concentrated to 2 mg/ml; conditions: remark: other sources report otherwise
T2 chain: T1 chain

B1: recombinant L-asparaginase refolded from E. coli inclusion bodies, P00805 23-348 (enzyme)
chain: T1 chain
stoichiometry N [1]: 4

B2: commercial L-asparaginase 5,000 IU/ml, Bionase 5K, P00805 23-348 (enzyme)
chain: T1 chain
stoichiometry N [2]: 4
tetrameric population (%) [2]: 81.4%
